Results published in publication PMC9772109.

Target: H10 HA trimer of A/Jiangxi-Donghu/346/2013 (H10 JD13) (influenza A virus A/Jiangxi-Donghu/346/2013 (H10N8))
Experiment: negative stain EM, 3D reconstruction

H10 HA trimer of A/Jiangxi-Donghu/346/2013 (H10 JD13) (natural protein)
stoichiometry N: 3
